Data set [1] can be described thus: Determination of the aggregative character of the peptides by sedimentation. The data set is classed as physicochemical. Particulars: for % sedimentation: 800 μM peptide, sedimentable peptide after polymerization as percentage of total concentration (16p and 9tp: 288 μM per FIG. 3 legend); for aggregative character (in words): sedimentation, Garnier-Delamarche representation. The protocol:
(§1) After thawing, a pre-dilution in milli Q H2O filtered through 0.2 μm was carried out in order to obtain a solution at a concentration close to the working concentration, greater than 1.25 times. This stock solution was left to incubate for 1 hour in a water bath at 25° C., and was then assayed spectrophotometrically and adjusted to the final working concentration of 1.25 times. The polymerization was initiated by adding ¼ of the volume of 5× fibrillation buffer (50 mM MOPS, 750 mM NaCl, pH=7.2) for a final concentration of 1× fibrillation buffer (10 mM MOPS, 150 mM NaCl, PH=7.2). The samples were left to incubate for 1.5-2 hours at 25° C. in a water bath. The study of the polymerization by fluorimetry was carried out under the same conditions, except that the 5× polymerization buffer was supplemented with Thioflavin T (ThT) at 100 μM in order to be able to observe the fluorescence. • (a) Determination of the Aggregative Character of the Peptides. Once polymerized, the samples were ultracentrifuged at 100,000 g for 5 minutes at 25° C. (Beckman TL100, rotor TL-A100). The supernatants of each sample were then collected. An assay at 280 nm in triplicate of each supernatant was then carried out in the presence of 1% SDS. The concentration of the supernatant was determined using the Beer-Lambert law A=ε×1×C; ε (peptides)=1450 M^−1cm^−1. The concentration of sedimentable species in the pellet was then deduced by the difference: “total concentration of the sample—concentration of free peptide present in the supernatant”. • (b) Determination of the Amyloidogenic Character of the Peptides. Once the peptides have polymerized as previously indicated, 40 μL of peptides polymerized at a concentration of 400 μM and 800 μM were diluted in 360 μL of Thioflavin T (10 μM ThT, 1×MOPS) in a thermostatically controlled tank of 0.2×1 cm, to a final volume of 400 μL. The fluorescence of the sample was then measured immediately after dilution by recording a fluorescence spectrum (470 nm to 600 nm) at an excitation wavelength of 450 nm (Perkin Elmer LS 55, PM 750, slit10).
(§2) After prediction of their amyloidogenic character by bioinformatics, all the peptides were studied using biochemical techniques, namely sedimentation and fluorescence/ThT. The biochemical experiments were carried out at two peptide concentrations: 400 μM and 800 μM. Only the results obtained at 800 μM are presented. At this concentration, in sedimentation, the amount of sedimentable peptide after polymerization was measured and expressed as a percentage as a function of the total concentration. This value corresponds to the aggregative character of the peptides. On the other hand, the fluorescence test was used to determine their amyloidogenic character, the fluorescence value given corresponds to a normalization with respect to 1p, considering that its fluorescence is 100% (Table 4).

The nature of data set [2]: Determination of the amyloidogenic character of the peptides by Thioflavin T fluorescence. It counts as physicochemical. To be noted: for % fluorescence: 800 μM peptide, ThT fluorescence normalized to 1p = 100% (16p and 9tp: 288 μM per FIG. 3 legend); for amyloidogenic character (in words): ThT fluorescence, Garnier-Delamarche representation. The protocol: as §1, §2
Data set [3] concerns the target T1, PHF6 peptide (VQIVYK, 1p) (Homo sapiens, UniProt P10636).
T1 construct: The polymerization of VQIVYK was initiated by adding ¼ of the volume of fibrillation buffer 5×
As to the kind of experiment: Effects of the derived peptides on VQIVYK polymerization by spectrofluorimetry (ThT kinetics). The data set is classed as biochemical. To be noted: [1p]=155 μM, [selected peptide]=310 μM; for fluorescence intensity (plateau / at 100 minutes) of 1p in the presence of peptide, % of 1p alone / maximum polymerization rate of 1p in the presence of peptide, % of 1p alone: [ThT]=32 μM; for inhibitory effect on 1p (PHF6) polymerization (in words): thresholds 50% rate, 100% fluorescence intensity.

In data set [4] the test system is cells of the neuroblastoma line SH-SY5Y. Nature of the data set: Growth of SH-SY5Y neuroblastoma cells (images). It counts as cell-based. Particulars: 100 μM, 24 hours, 1×DMEM medium, 8% serum. Here is the method:
The effects of three hexapeptides classified as “therapeutic” (1tp, 4tp, 6tp) and of two peptides classified as “amyloid” (7tp and 1p) on the growth of cells of the neuroblastoma line SH-SY5Y were studied after 24 hours of treatment in the presence of a hexapeptide at a concentration of 100 μM in 1×DMEM medium, 8% serum. The results obtained are presented on FIG. 10(A).

“And” between values parts separate entries of the source, which are not always exact repeats. Equal values may be shown once. “Also recorded” adds a separate entry of the source.

On to KYIQVV (Ac-KYIQVV-NH2) [2p], for which the “% sedimentation” value in data set [1] is reported as 67%. Moreover, in data set [2], the “% fluorescence” value is on record as 2.8%.

Regarding QVIKYV (Ac-QVIKYV-NH2) [23p], in data set [3], the “category of polymerization kinetics of 1p in the presence of peptide” value (from here on “category”) is “very high rate and intensity of fluorescence”; the “fluorescence intensity (plateau / at 100 minutes) of 1p in the presence of peptide, % of 1p alone” value is given as 161.7%; the “maximum polymerization rate of 1p in the presence of peptide, % of 1p alone” value worked out at 65%; the “inhibitory effect on 1p (PHF6) polymerization (in words)” value (“inhibitory effect on 1p” for short) is recorded as “non-inhibitory peptide; also recorded: without any inhibitory effect”. Besides, in data set [1], the “% sedimentation” value was found to be 5% and the “aggregative character (in words)” value is listed as “weakly aggregative”. For the same substance, in data set [2], the “% fluorescence” value came to 0.8% and the “amyloidogenic character (in words)” value is on record as “weakly amyloidogenic”.

Consider IYVQKV (Ac-IYVQKV-NH2) [9p], for which, in data set [3], the “category” value was “generally follow the kinetics of 1p alone” and the “inhibitory effect on 1p” value is on record as “without any inhibitory effect”. Moreover, in data set [1], the “% sedimentation” value is on record as 1% and the “aggregative character (in words)” value is “weakly aggregative”. For the same substance, in data set [2], the “% fluorescence” value is recorded as 2.1% and the “amyloidogenic character (in words)” value is listed as “weakly amyloidogenic”.

In the case of KVQIVY (Ac-KVQIVY-NH2) [10p], the “% sedimentation” value in data set [1] was determined as 63%. In addition, the “% fluorescence” value in data set [2] amounted to 3.2%.

As for VVIQYK (Ac-VVIQYK-NH2) [2tp], the “% sedimentation” value in data set [1] stood at 58%. In addition, the “% fluorescence” value in data set [2] turned out to be 2.9%.

With YQVIVK (Ac-YQVIVK-NH2) [17p], the “% sedimentation” value in data set [1] was found to be 95%. Further, the “% fluorescence” value in data set [2] stood at 2.3%.

For YIVVQK (Ac-YIVVQK-NH2) [13p], in data set [3], the “category” value was “generally follow the kinetics of 1p alone” and the “inhibitory effect on 1p” value is listed as “without any inhibitory effect”. Moreover, in data set [1], the “% sedimentation” value is reported as 0% and the “aggregative character (in words)” value is listed as “weakly aggregative”. In data set [2], the “% fluorescence” value was 2.7% and the “amyloidogenic character (in words)” value is “weakly amyloidogenic”.

As to VKVIYQ (Ac-VKVIYQ-NH2) [7p], the “% sedimentation” value in data set [1] was determined as 86%. Moreover, the “% fluorescence” value in data set [2] is on record as 1.3%.

As to KVQYVI (Ac-KVQYVI-NH2) [14p], in data set [3], the “category” value was “generally follow the kinetics of 1p alone” and the “inhibitory effect on 1p” value is “without any inhibitory effect”. In data set [1], the “% sedimentation” value turned out to be 1% and the “aggregative character (in words)” value is “weakly aggregative”. In addition, in data set [2], the “% fluorescence” value was found to be 4.4% and the “amyloidogenic character (in words)” value was “weakly amyloidogenic”.

Regarding VQVIYK (Ac-VQVIYK-NH2) [12p], the “% sedimentation” value in data set [1] turned out to be 14%. In data set [2], the “% fluorescence” value is 82% and 81.6%.

Regarding VVQKYI (Ac-VVQKYI-NH2) [6p], in data set [1], the “% sedimentation” value is on record as 14% and the “aggregative character (in words)” value is on record as “weakly aggregative; also recorded: more aggregative than the 10 selected hexapeptides”. Moreover, in data set [2], the “% fluorescence” value was determined as 0.2% and the “amyloidogenic character (in words)” value is “weakly amyloidogenic; also recorded: very poorly amyloidogenic”.

Consider KQIVYV (Ac-KQIVYV-NH2) [20p], for which the “% sedimentation” value in data set [1] came to 75%. Also, in data set [2], the “% fluorescence” value is listed as 1.3%.

Take QKYIVV (Ac-QKYIVV-NH2) [8p]: in data set [3], the “category” value was “very high rate and intensity of fluorescence”; the “inhibitory effect on 1p” value is given as “without any inhibitory effect”. Moreover, the “% sedimentation” value in data set [1] amounted to 0%. The “% fluorescence” value in data set [2] is 1.9%.

Regarding VKVYIQ (Ac-VKVYIQ-NH2) [11p], the “% sedimentation” value in data set [1] is 6%. Further, the “% fluorescence” value in data set [2] was found to be 25%.

Regarding “Ac-VQIVYK-NH2 [1p, Ac-VQIVYK-NH2, reference compound]”, in data set [4], the “effect on cell growth (number and appearance of cells)” value (from here on “effect on cell growth”) was “the number of cells seemed to strongly decrease”. Besides, the “aggregative character (in words)” value in data set [1] is recorded as “self-aggregative”. Besides, the “amyloidogenic character (in words)” value in data set [2] was “strong amyloidogenic”.

With VQVKYI (Ac-VQVKYI-NH2) [21p], in data set [1], the “% sedimentation” value turned out to be 33% and the “aggregative character (in words)” value is “poorly aggregative”. In data set [2], the “% fluorescence” value was found to be 19.9% and the “amyloidogenic character (in words)” value is given as “amyloidogenic”.

Consider VVIKYQ (Ac-VVIKYQ-NH2) [3tp], for which the “% sedimentation” value in data set [1] was 48%. Further, in data set [2], the “% fluorescence” value is recorded as 0.9%.

On to VQKIYV (Ac-VQKIYV-NH2) [4p], for which, in data set [3], the “category” value is on record as “generally follow the kinetics of 1p alone”; the “fluorescence intensity (plateau / at 100 minutes) of 1p in the presence of peptide, % of 1p alone” value is 80%; the “maximum polymerization rate of 1p in the presence of peptide, % of 1p alone” value is 50%; the “inhibitory effect on 1p” value was “inhibits the polymerization of 1p; also recorded: marked inhibitory effect; also recorded: with a weak inhibitory effect”. Further, in data set [1], the “% sedimentation” value worked out at 1% and the “aggregative character (in words)” value was “weakly aggregative”. Further, in data set [2], the “% fluorescence” value came out at 0.8% and the “amyloidogenic character (in words)” value is given as “weakly amyloidogenic”.

As to VQVYKI (Ac-VQVYKI-NH2) [22p], in data set [1], the “% sedimentation” value is 34%. Also, the “% fluorescence” value in data set [2] stood at 3%.

Turning to IKQVYV (Ac-IKQVYV-NH2) [5p], in data set [3], the “category” value was “generally follow the kinetics of 1p alone” and the “inhibitory effect on 1p” value is “marked inhibitory effect; also recorded: with a weak inhibitory effect”. In addition, in data set [1], the “% sedimentation” value is 5% and the “aggregative character (in words)” value is given as “weakly aggregative”. In data set [2], the “% fluorescence” value is on record as 1.1% and the “amyloidogenic character (in words)” value is “weakly amyloidogenic”.

As to KYVIQV (Ac-KYVIQV-NH2) [15p], in data set [1], the “% sedimentation” value came to 71%. In data set [2], the “% fluorescence” value worked out at 3.9%.

Regarding VQYVIK (Ac-VQYVIK-NH2) [5tp], in data set [1], the “% sedimentation” value amounted to 26% and the “aggregative character (in words)” value was “aggregative”. For the same substance, in data set [2], the “% fluorescence” value is 71.7% and the “amyloidogenic character (in words)” value is reported as “amyloidogenic”.

As for IQYVVK (Ac-IQYVVK-NH2) [8tp], the “% sedimentation” value in data set [1] is on record as 78%. The “% fluorescence” value in data set [2] was determined as 17.5%.

For Ac-IQVVYK-NH2 [7tp, IQVVYK], the “effect on cell growth” value in data set [4] is on record as “the number of cells seemed to strongly decrease”.

Take VQIKYV (Ac-VQIKYV-NH2) [0tp]: in data set [1], the “% sedimentation” value was determined as 0%. The “% fluorescence” value in data set [2] came out at 10.7%.

For Ac-VKIQYV-NH2 [4tp, VKIQYV], the “effect on cell growth” value in data set [4] is recorded as “did not seem to have any effect”.

For VKYQVI (Ac-VKYQVI-NH2) [3p], in data set [1], the “% sedimentation” value was 18% and the “aggregative character (in words)” value was “more aggregative than the 10 selected hexapeptides”. Besides, in data set [2], the “% fluorescence” value came to 0.2% and the “amyloidogenic character (in words)” value is given as “very poorly amyloidogenic”.

As for QKVVYI (Ac-QKVVYI-NH2) [18p], the “% sedimentation” value in data set [1] stood at 51%. Also, the “% fluorescence” value in data set [2] is reported as 6.8%.

In the case of QKVYIV (Ac-QKVYIV-NH2) [19p], in data set [1], the “% sedimentation” value turned out to be 76% and the “aggregative character (in words)” value was “vice versa”. Also, in data set [2], the “% fluorescence” value came to 0.8% and the “amyloidogenic character (in words)” value is given as “vice versa”.

Source of the values: patent US20260248877A1 (Universite de Rennes, priority 2021, published 2026).
